Measurements as given in the supplement of paper PMC10126150.
± gives the standard deviation of the averaged measurements.

Tested on: ATP
Assay: switch fluorescence ratio, 500 uM ATP over buffer (Cy3 cluster intensity, sum of 5 cycles each) (fold (ratio)); higher = stronger signal-on switching upon ATP binding; sequences stand for … in TCGTCGGCAGCGTCAGATGTGTATAAGAGACAGTTTTTTTTTTTTTTTTTTTTTTTTT…TC
Settings: aptamer strand: ATP DNA aptamer (quencher-CACCTGGGGGAGTATTGCGGAGGAAGG + anchor), 100 nM annealed; ATP concentration: 500 uM
Summary of the method: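 Five buffer/ATP imaging cycles were run on Cy3-labelled switching-strand clusters on a modified Illumina MiSeq flow-cell, with NaOH stripping and re-annealing between cycles. In each cycle, clusters annealed to 100 nM quencher-labelled ATP aptamer were imaged in selection buffer, then after 15 min with 500 uM ATP at 22 °C. Per cluster, the fluorescence ratio is summed target-cycle over summed buffer-cycle Cy3 intensity, averaged per switch-domain sequence. Only clusters within 100-1000 RFU were kept.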
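Also: ATP exposure 15 min at 22 °C before imaging.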

Sequence	switch fluorescence ratio
AAATTTGTTA	0.985 ± 0.04
AAAAACTAGT	1.04 ± 0.035
AGGGCGGGGT	1.02 ± 0.033
TTGGATAGGT	0.981 ± 0.027
AGTAAGATGT	0.976 ± 0.034
AGTTTTGCTC	0.981 ± 0.012
CAGTACCTAA	1.039 ± 0.0019
TCAGCAGGTT	2.85 ± 2.2
CGTTATTGAA	0.9834 ± 0.0067
GGGTCAGCTG	0.986 ± 0.036
GGTATTTTTG	0.992 ± 0.019
AGTGGCAAGG	0.9943 ± 0.0063
GATAACCATG	0.9933 ± 0.0035
ACGGGGGTAG	0.989 ± 0.022
CAGAGGGAAT	1.05 ± 0.032
GTGGGTGGTG	1.015 ± 0.0046
AAGAATGCGG	0.988 ± 0.027
TTTTTTTTAT	1 ± 0.024
TATTACACTG	1.03 ± 0.033
ATGGTTGTGT	0.983 ± 0.034
GGGTTAACTT	0.999 ± 0.046
ACATAGGCGG	1.022 ± 0.0083

Sequence	switch fluorescence ratio
TATTATGGGA	0.991 ± 0.035
TCGGGCCAGG	1.1 ± 0.071
AAGTACGTTC	1.25 ± 0.035
TACTTACTCG	1.241 ± 0.0038
CTGGAAAGGG	0.96 ± 0.019
ACTTCTAGCG	1.02 ± 0.072
GTAATTTAGT	1.02 ± 0.022
AAGGTTAGAC	1.03 ± 0.012
CGGGTTAGCC	0.998 ± 0.021
CGCGAGAGTT	1.02 ± 0.0018
GTGTGGGGGA	1.02 ± 0.04
TTGCGTTTTT	1 ± 0.024
GGGCATCGAC	1.05 ± 0.017
AGATAGGTTG	0.974 ± 0.038
CCAGAGGTTG	0.999 ± 0.021
TTTAGCTTTT	1.04 ± 0.01
AAGTGGGCGC	0.984 ± 0.016
GGGGTCTAAT	0.999 ± 0.048
TAATAGGGGC	0.991 ± 0.05
TTTAGGCGTT	1.01 ± 0.057
ATCGGGCGGG	1.02 ± 0.02
TTTTTTATCA	0.98 ± 0.029

Sequence	switch fluorescence ratio
TTAAAGGCCC	1.0667 ± 4.6e-05
AGATAATGGC	1.11 ± 0.19
TAATTCGTAC	1.07 ± 0.078
TAAACTTG	1.04 ± 0.086
TTAGGCGTTC	0.9892 ± 0.0096
TTTTAAAAGT	1 ± 0.03
CAACGGGTTT	0.997 ± 0.051
CGCGGTGCTC	3.17 ± 0.43
GTTTGCCATG	0.998 ± 0.047
AATATACTTT	1.04 ± 0.051
AATTTTAGAG	0.973 ± 0.045
TCCTGCGGGG	1.12 ± 0.12
AGTGGCACGG	1 ± 0.029
TTTCCTATAA	1.13 ± 0.21
GAGAAGTTTG	1.01 ± 0.018
GGTAATTAAA	0.974 ± 0.011
GGGATGAACT	1.01 ± 0.013
GAGTTGAGGG	0.973 ± 0.023
TGTACTAGGG	1.001 ± 0.0069
TTTTGGGTTA	0.992 ± 0.043
TAAAAGCAAT	2.1 ± 0.9
CGCCCGGAAT	1.97 ± 0.3

Sequence	switch fluorescence ratio
CTGGGGTTGC	0.96 ± 0.03
GATTTGACGG	0.983 ± 0.022
GGGTCCTGGG	0.973 ± 0.012
ACGGGTAGCA	0.999 ± 0.016
TTAGCAAAAA	1.1 ± 0.075
TGTAAGTATT	1.02 ± 0.018
CGGGAAGGCT	1.06 ± 0.13
ATTCCTTGGT	1.03 ± 0.022
CTCGGTTCTT	0.975 ± 0.019
CGGAGCAGTG	1.75 ± 0.055
ACTCTTGCGG	1.01 ± 0.016
GGCTGGATGG	0.961 ± 0.014
AGATGTGGGT	0.972 ± 0.02
CTGGGAGCAC	1.89 ± 0.15
TATTGAGATG	0.998 ± 0.046
TGGGGCTCTA	1.03 ± 0.033
ATAACGGGGG	1 ± 0.033
ATGGTTTATG	0.9812 ± 0.0077
ATATGATATC	1.03 ± 0.062
